Among the targets are GRK6(h) (human, UniProt P43250 1-576, limits assumed); Met(Y1248H)(h) (human, UniProt P08581-2 974-1408, limits assumed); PAK4(h) (human, UniProt O96013 1-591, limits assumed); Pim-2(h) (human, UniProt Q9P1W9 1-311); Pim-3(h) (human, UniProt Q86V86 1-326); cKit(D816H)(h) (human, UniProt P10721 544-976, limits assumed).
What all share (assay): cell-based or functional assay
In a further test the target is T1, EphA3(h) (human, UniProt P29320 566-983, limits assumed).
T1 sequence (looked up): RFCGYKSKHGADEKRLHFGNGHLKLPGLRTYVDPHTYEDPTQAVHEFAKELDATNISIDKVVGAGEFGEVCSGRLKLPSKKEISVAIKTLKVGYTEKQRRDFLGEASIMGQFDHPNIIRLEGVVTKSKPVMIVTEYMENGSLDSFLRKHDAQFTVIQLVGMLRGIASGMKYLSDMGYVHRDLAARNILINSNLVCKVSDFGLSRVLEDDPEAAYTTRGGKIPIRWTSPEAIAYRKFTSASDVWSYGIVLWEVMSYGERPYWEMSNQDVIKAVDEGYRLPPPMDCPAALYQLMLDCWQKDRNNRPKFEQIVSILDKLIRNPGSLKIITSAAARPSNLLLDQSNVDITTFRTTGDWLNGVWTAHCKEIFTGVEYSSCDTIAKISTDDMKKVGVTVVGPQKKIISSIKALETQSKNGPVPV

In the next test the target is T2, EphA5(h) (human, UniProt P54756 595-1037, limits assumed).
T2 sequence (looked up): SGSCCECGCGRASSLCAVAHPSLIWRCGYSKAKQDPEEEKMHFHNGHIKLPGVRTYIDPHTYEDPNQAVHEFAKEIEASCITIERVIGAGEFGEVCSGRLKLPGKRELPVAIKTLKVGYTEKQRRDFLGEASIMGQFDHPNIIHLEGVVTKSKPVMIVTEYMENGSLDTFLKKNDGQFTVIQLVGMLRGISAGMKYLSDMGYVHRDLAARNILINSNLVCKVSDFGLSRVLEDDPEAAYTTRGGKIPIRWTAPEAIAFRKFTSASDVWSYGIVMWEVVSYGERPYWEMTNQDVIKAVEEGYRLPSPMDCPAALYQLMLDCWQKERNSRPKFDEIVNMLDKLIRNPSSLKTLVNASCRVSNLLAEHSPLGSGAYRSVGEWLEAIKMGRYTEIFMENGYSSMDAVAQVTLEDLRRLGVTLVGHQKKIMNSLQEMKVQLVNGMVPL

Another test has as its target T3, EphB3(h) (human, UniProt P54753 581-998, limits assumed).
T3 sequence (looked up): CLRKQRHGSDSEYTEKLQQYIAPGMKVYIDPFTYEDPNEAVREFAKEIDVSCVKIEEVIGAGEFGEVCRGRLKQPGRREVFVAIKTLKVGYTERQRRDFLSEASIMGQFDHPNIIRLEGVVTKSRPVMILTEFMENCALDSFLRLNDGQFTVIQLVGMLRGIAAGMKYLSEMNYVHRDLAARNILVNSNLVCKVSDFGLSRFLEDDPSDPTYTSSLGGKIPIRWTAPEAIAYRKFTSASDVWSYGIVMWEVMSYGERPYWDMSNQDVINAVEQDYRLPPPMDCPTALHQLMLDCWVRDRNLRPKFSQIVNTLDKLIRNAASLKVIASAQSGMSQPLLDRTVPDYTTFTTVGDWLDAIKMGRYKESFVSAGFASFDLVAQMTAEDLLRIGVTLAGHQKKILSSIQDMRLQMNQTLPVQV

The target of the next test is T4, Flt3(h) (human, UniProt P36888 564-993, limits assumed).
T4 sequence (looked up): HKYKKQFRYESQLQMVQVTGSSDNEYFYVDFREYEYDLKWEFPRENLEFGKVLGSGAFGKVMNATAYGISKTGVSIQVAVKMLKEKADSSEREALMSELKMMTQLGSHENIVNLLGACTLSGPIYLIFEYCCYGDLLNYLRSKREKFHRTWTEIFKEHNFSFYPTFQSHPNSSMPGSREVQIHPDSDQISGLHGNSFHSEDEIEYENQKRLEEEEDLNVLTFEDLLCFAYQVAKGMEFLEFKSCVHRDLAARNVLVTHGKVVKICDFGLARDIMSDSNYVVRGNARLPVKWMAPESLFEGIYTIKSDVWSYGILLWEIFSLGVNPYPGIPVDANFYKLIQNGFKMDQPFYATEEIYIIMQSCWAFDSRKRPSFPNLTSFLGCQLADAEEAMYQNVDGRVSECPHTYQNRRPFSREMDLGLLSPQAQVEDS

The target in another test is T5, TBK1(h) (human, UniProt Q9UHD2 1-729, limits assumed).
T5 sequence (looked up): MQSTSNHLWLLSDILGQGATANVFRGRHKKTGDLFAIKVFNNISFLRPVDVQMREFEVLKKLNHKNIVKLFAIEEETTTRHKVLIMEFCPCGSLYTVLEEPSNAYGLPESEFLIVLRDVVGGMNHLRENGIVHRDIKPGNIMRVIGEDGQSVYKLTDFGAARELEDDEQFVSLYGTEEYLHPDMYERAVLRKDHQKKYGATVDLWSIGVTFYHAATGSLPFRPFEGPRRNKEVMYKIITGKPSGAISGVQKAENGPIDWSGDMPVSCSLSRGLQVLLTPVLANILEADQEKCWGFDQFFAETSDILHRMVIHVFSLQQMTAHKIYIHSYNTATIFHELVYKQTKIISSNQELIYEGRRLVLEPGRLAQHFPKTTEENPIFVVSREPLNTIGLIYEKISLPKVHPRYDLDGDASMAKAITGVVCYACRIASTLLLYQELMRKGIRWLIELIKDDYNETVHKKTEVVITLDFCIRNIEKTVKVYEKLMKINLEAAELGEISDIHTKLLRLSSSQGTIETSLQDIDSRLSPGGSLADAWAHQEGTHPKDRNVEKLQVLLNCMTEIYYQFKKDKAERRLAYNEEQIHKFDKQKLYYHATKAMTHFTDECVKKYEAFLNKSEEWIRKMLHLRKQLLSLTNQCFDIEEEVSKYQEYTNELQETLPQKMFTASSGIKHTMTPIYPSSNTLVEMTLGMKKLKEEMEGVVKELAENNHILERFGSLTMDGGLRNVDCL

Sequence of PAK4(h) (O96013 whole entry): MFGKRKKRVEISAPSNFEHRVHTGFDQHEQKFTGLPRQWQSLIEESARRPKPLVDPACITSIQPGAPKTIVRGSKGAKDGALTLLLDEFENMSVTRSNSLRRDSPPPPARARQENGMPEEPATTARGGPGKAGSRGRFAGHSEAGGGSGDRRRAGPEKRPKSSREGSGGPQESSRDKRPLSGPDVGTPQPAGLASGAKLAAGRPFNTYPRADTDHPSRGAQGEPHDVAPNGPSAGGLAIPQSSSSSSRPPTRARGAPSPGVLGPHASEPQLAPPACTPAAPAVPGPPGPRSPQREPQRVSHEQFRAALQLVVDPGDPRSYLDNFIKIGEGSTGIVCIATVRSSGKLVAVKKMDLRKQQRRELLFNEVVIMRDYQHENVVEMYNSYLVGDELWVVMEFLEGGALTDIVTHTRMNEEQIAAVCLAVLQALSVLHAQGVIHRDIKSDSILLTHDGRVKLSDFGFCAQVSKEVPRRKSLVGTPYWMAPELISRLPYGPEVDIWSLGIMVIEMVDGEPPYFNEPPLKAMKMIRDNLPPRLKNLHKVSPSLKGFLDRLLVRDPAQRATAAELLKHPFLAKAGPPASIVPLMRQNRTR
Sequence of cKit(D816H)(h) (P10721 544-976 D816H limits assumed): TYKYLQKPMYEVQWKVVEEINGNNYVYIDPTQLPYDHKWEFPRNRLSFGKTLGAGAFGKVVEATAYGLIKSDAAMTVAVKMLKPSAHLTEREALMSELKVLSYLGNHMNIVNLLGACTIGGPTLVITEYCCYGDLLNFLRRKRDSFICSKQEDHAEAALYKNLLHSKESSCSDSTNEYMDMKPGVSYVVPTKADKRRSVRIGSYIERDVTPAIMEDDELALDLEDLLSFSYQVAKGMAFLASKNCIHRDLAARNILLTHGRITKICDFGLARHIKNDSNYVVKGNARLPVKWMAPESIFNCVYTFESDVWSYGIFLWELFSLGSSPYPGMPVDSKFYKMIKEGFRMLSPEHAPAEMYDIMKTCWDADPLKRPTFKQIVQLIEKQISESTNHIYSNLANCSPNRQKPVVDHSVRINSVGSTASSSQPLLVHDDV
Sequence of GRK6(h) (P43250 whole entry): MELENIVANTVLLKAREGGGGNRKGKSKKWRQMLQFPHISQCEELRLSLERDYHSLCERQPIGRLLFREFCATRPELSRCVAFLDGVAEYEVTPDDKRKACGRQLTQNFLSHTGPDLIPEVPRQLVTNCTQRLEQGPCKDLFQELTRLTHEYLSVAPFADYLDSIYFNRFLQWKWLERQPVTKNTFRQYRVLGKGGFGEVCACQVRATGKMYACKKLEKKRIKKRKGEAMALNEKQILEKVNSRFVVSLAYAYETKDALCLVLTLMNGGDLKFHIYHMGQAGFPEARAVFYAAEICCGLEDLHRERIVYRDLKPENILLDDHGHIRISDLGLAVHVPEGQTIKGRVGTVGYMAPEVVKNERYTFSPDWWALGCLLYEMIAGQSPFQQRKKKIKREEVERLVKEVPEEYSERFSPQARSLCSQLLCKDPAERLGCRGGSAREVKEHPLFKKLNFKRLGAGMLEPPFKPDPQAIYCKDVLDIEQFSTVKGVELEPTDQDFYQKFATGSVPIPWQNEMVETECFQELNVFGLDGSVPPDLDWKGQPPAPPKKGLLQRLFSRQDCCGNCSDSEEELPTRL
Sequence of Pim-2(h) (Q9P1W9 whole entry): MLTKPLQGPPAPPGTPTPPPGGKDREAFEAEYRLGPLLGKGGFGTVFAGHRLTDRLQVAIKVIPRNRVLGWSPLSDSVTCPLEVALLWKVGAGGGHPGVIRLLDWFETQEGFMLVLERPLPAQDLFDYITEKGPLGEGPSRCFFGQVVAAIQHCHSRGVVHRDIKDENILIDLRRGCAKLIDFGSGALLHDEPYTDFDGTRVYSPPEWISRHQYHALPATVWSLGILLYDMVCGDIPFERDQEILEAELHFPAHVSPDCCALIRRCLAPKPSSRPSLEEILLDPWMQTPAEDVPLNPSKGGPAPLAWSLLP

B1: MMI-0400 (peptide)
peptide: KAFAKLAARLYRKALARQLGVAA
Consider B1, for which the “% activity” value was 12% in the test with EphA3(h); 24% with EphA5(h); 141% with GRK6(h); 63% in the test with Met(Y1248H)(h); 89% in the test with PAK4(h); 47% in the test with EphB3(h). The “% activity” value in the test with Flt3(h) was found to be 18%; with Pim-2(h), 92%; in the test with Pim-3(h), 80%; in the test with TBK1(h) it was 39%; in the test with cKit(D816H)(h) it was 143%.

B2: MMI-0300 (peptide)
peptide: FAKLAARLYRKALARQLGVAA
Regarding B2, the “% activity” value with EphA3(h) was 6%; with EphA5(h) it was 18%; in the test with GRK6(h), 147%; with Met(Y1248H)(h), 117%; with PAK4(h), 94%; with EphB3(h), 62%. In addition, the “% activity” value with Flt3(h) was determined as 84%; with Pim-2(h), 76%; with Pim-3(h), 80%; with TBK1(h), 37%; in the test with cKit(D816H)(h), 126%.

The values above are taken from patent publication US20160200782A1 (MOERAE MATRIX, published 2016).
